Laboratory results: patent publication US20250277030A1, “ANTI-NAPI2B ANTIBODIES AND METHODS OF USE” (Zymeworks BC Inc., priority 2022, published 2025)

What was measured:
[1] = system: NCI-H441 cells; test: Internalization by flow cytometry in NCI-H441 cells; format: cell-based, human; settings: antibody 10 nM
Description: Briefly, antibodies were fluorescently labeled by coupling to a Fab fragment AF488 conjugate targeting anti-Human IgG Fe (Jackson Immuno Research Labs, West Grove, PA; Cat. No. 109-547-008) at a 1:1 molar ratio in PBS pH 7.4 (Thermo Fisher Scientific, Waltham, MA; Cat. No. 10010-023), for 24 hours at 4° C. Cells were seeded at 50,000 cells/well in RPMI 1640, ATCC modification (Thermo Fisher Scientific, Waltham, MA) supplemented with 10% fetal bovine serum (Thermo Fisher Scientific, Waltham, MA) in 48-well plates and incubated overnight under standard culturing conditions (37° C./5% CO2) to allow attachment. […] Following incubation, cells were dissociated, washed, and surface AF488 fluorescence was quenched using an anti-AF488 antibody (Life Technologies, Carlsbad, CA; Cat. No. A-11094) at 100 nM for 30 minutes at 4° C. […] (internalized fluorescence) was detected by flow cytometry on a BD LSRFortessa™ Cell Analyzer (BD Biosciences, Franklin Lake, NJ) with 1,000 minimum events collected per well. The AF488/FITC-A GeoMean (fluorescence signal geometric mean, proportional to anti-Human Fab AF488 labelling) was calculated for the live single cell population using FlowJo™ Version 10.8.1 (BD Biosciences, Franklin Lake, NJ) and plotted using GraphPad Prism Version 9 (GraphPad Software, San Diego, CA).

[2] = molecular target: T1, Insulin (Homo sapiens, UniProt P01308); test: NS-ELISA non-specific binding, insulin; settings: mAb at 100 nM
T1 construct: purchased Sigma-Aldrich 19278
Description: (§1) The isoelectric point was measured by capillary isoelectric focusing (cIEF), the propensity for self-aggregation was measured by Affinity-capture self-interaction nanoparticle spectroscopy (AC-SINS) and non-specific binding was measured by NS-ELISA, as described below.
NS-ELISA was used to measure the propensity of the antibodies to bind to a range of biomolecules to emulate the undesirable non-specific interactions to biological matrices in vivo as described below.
NS-ELISA was carried out in Corning®96-well EIA/RIA Easy Wash™ Clear Flat Bottom Polystyrene High Bind Microplate coated overnight at 4° C. with 50 μL of Heparin (Sigma, H3149) diluted with 50 mM sodium carbonate pH 9.6 to a final concentration of 250 μg/mL. The plate was incubated for 2 days at room temperature, wells that were coated with heparin were not covered to allow air dry. […] Reactions were stopped after approximately 10 minutes by adding 100 μL of 1 M HCl to each well, and absorbance was read at 450 nm. Binding scores were calculated as the ratio of the ELISA signal of the antibody (antibody-treated) to the signal of a well containing buffer instead of the primary antibody (untreated). The cutoffs considered for each binding molecule (ssDNA, KLH, insulin, dsDNA and heparin) were internally calculated, based on the average of Zymeworks Inc. produced antibodies and antibodies benchmarks published in the literature.

[3] = Capillary isoelectric focusing (cIEF); format: physicochemical; settings: main isoform; 0.5 mg/mL
Description: as §1
cIEF was carried out using Maurice C. (ProteinSimple®) system, System Suitability Kit and Method Development Kit. System suitability standard, fluorescence calibration standard, cartridge and samples were prepared according to vendor's recommendations. The capillary was automatically calibrated with a fluorescence standard preconditioned with Maurice cIEF System Suitability Kit to ensure the capillary was functioning properly. The antibody samples were diluted to a concentration of 0.5 mg/mL in a final volume of 40 μL in Gibco™ Distilled Water, and mixed Maurice cIEF Method Development Kit Samples. The samples were then vortexed, centrifuged and the supernatant pipetted into individual wells of a 96-well plate. All electropherograms were detected with UV absorbance at 280 nm. All data analyses were performed using vendor software Compass for iCE (ProteinSimple®).

T1 sequence (P01308 25-54 limits assumed): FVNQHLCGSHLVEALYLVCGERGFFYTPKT
T1 sequence (P01308 90-110 limits assumed): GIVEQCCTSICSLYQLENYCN

NS-ELISA binding score (ratio of signal between antibody-treated and untreated), Insulin [2]: 1.05
B1: v29456: humanized anti-NaPi2b IgG1/kappa antibody H1L2; VH SEQ ID NO:24, VL SEQ ID NO:29 (antibody, V domains shown)
VH: QVQLVQSGAEVKKPGASVKVSCKASGFTFTSYNVHWVRQAPGQGLEWMGAISPGNGDLSYAQKFQGRVTMTRDTSTSTVYMELSSLRSEDTAVYYCARGRTGMGAVDYWGQGTLVTVSS
VL: DVQMTQSPSSLSASVGDRVTITCRASQDVYSYLNWYQQKPGKAVKLLIYYTSRLQSGVPSRFSGSGSGTDYTLTISSLQPEDFATYYCQQYNIFPWTFGQGTKLEIK
modifications: v29452, v29456, v29460 VH (H1); v29453, v29454, v29455, v29456 VL (L2)
Internalized Fluorescence Fold-Over Palivizumab ([1]; NCI-H441, 5 hrs): 2.4 fold
Internalized Fluorescence Fold-Over Palivizumab ([1]; NCI-H441, 24 hrs): 4.0 fold
cIEF pI [3]: 8.53
